According to publication PMC3305458, “E2F1 Mediated Apoptosis Induced by the DNA Damage Response Is Blocked by EBV Nuclear Antigen 3C in Lymphoblastoid Cells” (PLoS Pathogens, 2012):

Biological target: flag-tagged wild-type E2F1 (residues 1–437) (UniProt Q01094 1-437)
Assay: cell-based or functional assay

Sequence of flag-tagged wild-type E2F1 (residues 1–437) (Q01094 whole entry, the tested form may be a part): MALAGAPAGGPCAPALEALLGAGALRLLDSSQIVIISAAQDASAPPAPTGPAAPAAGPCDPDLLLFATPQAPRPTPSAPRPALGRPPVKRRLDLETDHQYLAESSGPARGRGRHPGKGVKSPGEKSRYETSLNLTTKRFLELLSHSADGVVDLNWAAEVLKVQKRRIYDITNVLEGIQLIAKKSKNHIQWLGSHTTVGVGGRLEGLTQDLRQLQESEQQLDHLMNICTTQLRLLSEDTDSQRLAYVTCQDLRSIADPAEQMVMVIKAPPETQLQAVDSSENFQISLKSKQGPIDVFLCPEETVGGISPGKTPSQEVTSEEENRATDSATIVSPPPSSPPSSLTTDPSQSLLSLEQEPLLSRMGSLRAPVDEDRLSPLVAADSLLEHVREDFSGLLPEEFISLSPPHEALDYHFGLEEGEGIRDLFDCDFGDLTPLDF

B1: myc-tagged EBNA3C (residues 1–992) (natural protein)
chain: MESFEGQGDSRQSPDNERGDNVQTTGEHDQDPGPGPPSSGASERLVPEESYSRDQQPWGQSRGDENRGWMQRIRRRRRRRAALSGHLLDTEDNVPPWLPPHDITPYTARNIRDAACRAVKQSHLQALSNLILDSGLDTQHILCFVMAARQRLQDIRRGPLVAEGGVGWRHWLLTSPSQSWPMGYRTATLRTLTPVPNRVGADSIMLTATFGCQNAARTLNTFSATVWTPPHAGPREQERYAREAEVRFLRGKWQRRYRRIYDLIELCGSLHHIWQNLLQTEENLLDFVRFMGVMSSCNNPAVNYWFHKTIGNFKPYYPWNAPPNENPYHARRGIKEHVIQNAFRKAQIQGLSMLATGGEPRGDATSETSSDEDTGRQGSDVELESSDDELPYIDPNMEPVQQRPVMFVSRVPAKKPRKLPWPTPKTHPVKRTNVKTSDRSDKAEAQSTPERPGPSEQSSVTVEPAHPTPVEMPMVILHQPPPVPKPVPVKPTPPPSRRRRGACVVYDDDVIEVIDVETTEDSSSVSQPNKPHRKHQDGFQRSGRRQKRAAPPTVSPSDTGPPAVGPPAAGPPAAGPPAAGPPAAGPPAAGPPAAGPRILAPLSAGPPAAGPHIVTPPSARPRIMAPPVVRMFMRERQLPQSTGRKPQCFWEMRAGREITQMQQEPSSHLQSATQPTTPRPSWAPSVCALSVMDAGKAQPIESSHLSSMSPTQPISHEEQPRYEDPDAPLDLSLHPDVAAQPAPQAPYQGYQEPPAPQAPYQGYQEPPPPQAPYQGYQEPPAHGLQSSSYPGYAGPWTPRSQHPCYRHPWAPWSQDPVHGHTQGPWDPRAPHLPPQWDGSAGHGQDQVSQFPHLQSETGPPRLQLSLVPLVSSSAPSWSSPQPRAPIRPIPTRFPPPPMPLQDSMAVGCDSSGTACPSMPFASDYSQGAFTPLDINATTPKRPRVEESSHGPARCSQATAEAQEILSDNSEISVFPKDAKQTDYDASTESELD
B1 was tested, and the “proliferation of G418-selected Saos-2 cells after serum starvation and 5 µM etoposide, counted for 6 days: E2F1 plus EBNA3C against E2F1 alone or E2F1 plus EBNA3C residues 366-620” value was about 4 fold.
